Values belong to the binder of their own block, whether it stands above or below them.
What was measured:
Experiment in all cases: yeast two-hybrid (LexA-KMD bait, B42-ARR prey, X-gal)
[1] = biological target: T1, ARR2 (Arabidopsis, UniProt Q9ZWJ9 1-664, limits assumed)
T1 construct: also called type-B response regulator ARR2
T1 sequence (looked up): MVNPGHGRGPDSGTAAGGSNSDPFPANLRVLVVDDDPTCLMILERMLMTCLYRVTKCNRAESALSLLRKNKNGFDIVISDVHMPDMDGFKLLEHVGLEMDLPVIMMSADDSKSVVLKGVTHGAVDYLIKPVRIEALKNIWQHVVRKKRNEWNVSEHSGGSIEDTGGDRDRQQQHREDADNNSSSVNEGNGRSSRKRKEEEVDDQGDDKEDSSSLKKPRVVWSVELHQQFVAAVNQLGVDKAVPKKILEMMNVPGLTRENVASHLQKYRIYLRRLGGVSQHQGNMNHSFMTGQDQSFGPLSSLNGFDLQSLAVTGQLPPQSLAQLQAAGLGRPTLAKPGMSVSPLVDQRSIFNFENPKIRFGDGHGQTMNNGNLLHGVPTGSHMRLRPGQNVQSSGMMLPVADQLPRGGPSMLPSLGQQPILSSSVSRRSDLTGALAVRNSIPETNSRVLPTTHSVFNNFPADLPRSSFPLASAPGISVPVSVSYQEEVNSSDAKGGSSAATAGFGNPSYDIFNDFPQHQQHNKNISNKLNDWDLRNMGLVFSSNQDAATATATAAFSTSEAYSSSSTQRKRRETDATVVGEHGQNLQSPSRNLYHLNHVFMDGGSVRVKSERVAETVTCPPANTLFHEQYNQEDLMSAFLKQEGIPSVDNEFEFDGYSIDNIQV
Text: (§1) The DUPLEX-A™ system (OriGene Technologies) was used for yeast two-hybrid analysis of interactions. KMD cDNAs were cloned into the pGilda bait vector, which produces an in-frame fusion with the LexA DNA-binding domain. Type-B ARR coding sequences were cloned into the pJG4-5 prey vector, which produces a B42 activation domain. The yeast strain EGY48 (MATa, trp1, his3, ura3, leu2::6 LexAop-LEU2) that contains the lacZ reporter plasmid pSH18-34 was transformed with the appropriate “bait” and “prey” plasmids. Interactions were tested on 5-bromo-4-chloro-3-indolyl-p-D-galactopyranoside (X-gal) medium (Ryu, et al. (2005) Cell 120(3): 395-406).
(§2) The KMD proteins also interacted with ARR20 (type-B ARR subfamily-3), but not with ARR19 (subfamily-2) and ARR21 (subfamily-3). […] All four KMD proteins interacted with both ARR1 and ARR12 in a BiFC assay. Strong fluorescence was detected in the nuclei of cells, consistent with the subcellular localization of the type-B ARRs (Hwang & Sheen J (2001) Nature 413(6854):383-389; Mason, et al. (2004) Plant Physiol. 135(2):927-937).

[2] = biological target: T2, ARR10 (Arabidopsis, UniProt O49397 1-552, limits assumed)
T2 construct: also called type-B response regulator ARR10
T2 sequence (looked up): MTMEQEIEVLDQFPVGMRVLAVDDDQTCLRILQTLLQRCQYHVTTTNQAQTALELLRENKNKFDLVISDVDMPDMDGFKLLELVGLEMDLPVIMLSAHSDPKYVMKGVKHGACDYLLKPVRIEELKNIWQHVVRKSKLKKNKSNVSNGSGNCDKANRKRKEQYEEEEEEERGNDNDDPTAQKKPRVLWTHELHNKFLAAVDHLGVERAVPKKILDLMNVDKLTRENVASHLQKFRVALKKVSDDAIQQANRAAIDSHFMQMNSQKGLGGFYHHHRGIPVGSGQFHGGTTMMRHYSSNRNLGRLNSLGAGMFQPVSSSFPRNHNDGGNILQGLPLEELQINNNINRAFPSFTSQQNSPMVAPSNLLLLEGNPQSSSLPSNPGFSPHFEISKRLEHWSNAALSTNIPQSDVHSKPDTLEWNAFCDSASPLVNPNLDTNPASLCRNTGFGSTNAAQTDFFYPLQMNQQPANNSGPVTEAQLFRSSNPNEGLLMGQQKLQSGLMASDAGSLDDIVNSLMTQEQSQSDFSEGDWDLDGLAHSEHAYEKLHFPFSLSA
Text: as §1, §2

[3] = biological target: T3, ARR19 (subfamily-2) (Arabidopsis, UniProt Q9M9B9 1-407, limits assumed)
T3 sequence (looked up): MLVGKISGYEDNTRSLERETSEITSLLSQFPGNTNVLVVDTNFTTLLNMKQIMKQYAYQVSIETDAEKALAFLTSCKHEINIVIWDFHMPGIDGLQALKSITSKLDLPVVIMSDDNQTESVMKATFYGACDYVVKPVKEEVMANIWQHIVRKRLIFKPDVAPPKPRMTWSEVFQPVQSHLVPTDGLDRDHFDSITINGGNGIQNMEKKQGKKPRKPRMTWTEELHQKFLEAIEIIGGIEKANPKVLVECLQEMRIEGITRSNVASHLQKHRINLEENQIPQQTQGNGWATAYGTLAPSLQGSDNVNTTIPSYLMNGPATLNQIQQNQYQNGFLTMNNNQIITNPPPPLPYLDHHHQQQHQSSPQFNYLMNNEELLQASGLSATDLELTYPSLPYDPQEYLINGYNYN
Text: as §1, §2

[4] = biological target: T4, ARR21 (subfamily-3) (Arabidopsis, UniProt Q9LYP5 1-613, limits assumed)
T4 sequence (looked up): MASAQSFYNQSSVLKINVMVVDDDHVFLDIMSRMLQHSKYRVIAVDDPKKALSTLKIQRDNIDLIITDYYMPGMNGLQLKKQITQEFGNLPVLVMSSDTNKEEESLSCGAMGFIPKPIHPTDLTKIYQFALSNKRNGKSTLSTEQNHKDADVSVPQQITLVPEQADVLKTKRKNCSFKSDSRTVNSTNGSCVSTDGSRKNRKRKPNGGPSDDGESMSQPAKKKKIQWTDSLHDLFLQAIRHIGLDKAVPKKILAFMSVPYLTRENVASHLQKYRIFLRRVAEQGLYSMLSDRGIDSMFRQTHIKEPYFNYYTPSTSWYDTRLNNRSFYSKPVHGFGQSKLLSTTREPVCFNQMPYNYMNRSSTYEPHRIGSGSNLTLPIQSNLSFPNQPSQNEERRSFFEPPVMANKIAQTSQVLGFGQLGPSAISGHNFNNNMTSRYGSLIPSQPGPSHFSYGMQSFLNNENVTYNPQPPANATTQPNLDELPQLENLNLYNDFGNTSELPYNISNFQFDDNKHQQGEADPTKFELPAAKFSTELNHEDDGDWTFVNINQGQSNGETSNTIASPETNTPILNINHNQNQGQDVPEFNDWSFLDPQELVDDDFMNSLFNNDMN
Text: as §1, §2

binding result [1]: binds | binding result [2]: binds | binding result [3]: no binding | binding result [4]: no binding
B1: KISS ME DEADLY 2 (KMD2) (other, Arabidopsis, UniProt Q9LMR5 1-359, looked up)
chain: MELIPDLPETVAYECLLRSSYKQFPLMASVCKLWQREISLSDFFRHRKASGHSQELVVLSQARVDPVKELVSGNKTIPTPVYRISVLELGTGLRSELPPVPGHSNGLPLFCRLVSVGSDLVVLCGLDPVTWRTSDSVFVFSFLTSTWRVGKSMPGGPRSFFACASDSQRNVFVAGGHDEDKNAMMSALVYDVAEDRWAFLPDMGRERDECTAIFHAGKFHVIGGYSTEEQGQFSKTAESFDVTTWRWSPQGEEFLSSEMTMWPPICAAGENGDLYACCRRDLMMMKDDTWYKVGNLPADVCNVSYVAIRRSGNLVVIGSARYGEPSVGYNWDMSNSRWLKLETHDKYEGHVQAGCFLEI
notes: Full-length protein; LexA fusion in yeast two-hybrid, YFP^N or YFP^C fusion in BiFC; also called At1g15670

binding result [1]: binds | binding result [2]: binds | binding result [3]: no binding | binding result [4]: no binding
B2: KISS ME DEADLY 1 (KMD1) (other, Arabidopsis, UniProt Q9M8L2 1-354, looked up)
chain: MELIPNLPDDVARECLLRSSYQQFPVIASVCRAWNREVSLSQFLHQRKASRHSQELLILSQARVDPAGSGKIIATPEYRISVLESGSGLWTELPPIPGQTKGLPLFCRLVSVGSDLIVLGGLDPITWQAHDSVFVFSFLTSKWRVGATMPGVRRSFFGCASDSDRTVLVAGGHNEEKCALTSAMVYDVSEDKWTFLPDMARERDECKAVFHAGRFHVIGGYATEEQGQFSKTAESFDVSTWEWGPLTEDFLDDTGDTVSPPTCVAGGDLYACWGGDVMMFLNDKWQKVGQIPADVYNVTYVAVRPGMLIVIGNGKALAGYGEATVGYICDLSSSRWVKLETHGGHVQAGCFLEV
notes: Full-length protein; also called At1g80440
